Tested on: K4 kissing-loop RNA reporter
Experiment: apparent KD of K4 kissing-loop reporter; higher = weaker reporter binding
Conditions: Eterna round: R107
Procedure: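 RNA-MaP round R107: designed RNA switches with theophylline, tryptophan, arginine or FMN aptamers are transcribed on-chip within common flanks. They are titrated with a labelled K4 kissing-loop RNA reporter in RNA-MaP buffer (100 mM Tris pH 7.5, 80 mM KCl, 4 mM MgCl2), without ligand or with the indicated ligand. Median apparent KD per design.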

[1] = input ligand: theophylline 20 uM
[2] = input ligand: tryptophan 2.4 mM
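Note: bound reporter read as fluorescence of individual clusters on recovered sequencing chips by microscopy, with normalized cluster intensities fitted with a binding model.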

Sequence | apparent KD of K4 kissing-loop reporter (input ligand: FMN 200 uM) | apparent KD of K4 kissing-loop reporter (input ligand: arginine 13.2 mM) | apparent KD of K4 kissing-loop reporter (input ligand: none) | apparent KD of K4 kissing-loop reporter [1] | apparent KD of K4 kissing-loop reporter [2]
GUGGGCAUAGCAGGAUAUCCAUAUUAACAGGAGUCCUCGCCAGUGAUGUUGGAAAGGUACCGGAGUGGAGAAGGGCUCCUACGUA [Anbiratien] | 594 nM | 782 nM | 813 nM | 757 nM | 515 nM
GUGGUACAGGCGGCCGCCACUAGUGAUGUUAGUGAUAGAAGAUAUAGUAUAUAUCGGCAUUUAGUUAGGACCGGGCCUGGUGGUG [wwwrcmullin] | 424 nM | 316 nM | 360 nM | 367 nM | 337 nM
GUUACGCAUGGAAGGAGCGCACUCCGGUUGAUCAACACAGUGAUGUUGUGGUUCAUUCGAAUGCAGGUAGGUCGCCAUGUGUAAC [Ex Arginine B K4 16] | 877 nM | 724 nM | 1100 nM | 858 nM | 825 nM
GUUACGCAUGGAAGGAGCGCUCUCCGGCUUAAUAACACAGUGAUGUUGUGAAUUUGCCGAAAGCAGGUAGGUCGCCAUGUGUAAC [Ex Arginine B K4 10] | 474 nM | 359 nM | 453 nM | 435 nM | 413 nM
GUUUGGCUCCGAAGACGGCAGUGGGAAAUAUAGGAUAUCUAGAAAUAGAGAAGGAUACUAGUGAUGUUAGUAUCGGAUAAAACAA | 85.9 nM | 76.3 nM | 73 nM | 83.7 nM | 79.8 nM
GUUUUAUAGGAGGAUACCAGUACAAAUAAAGUGCAUUAAUAGUAGAGUGAUGUUCUAAAGUACCCUUGGCAGCUUAGUUUAAGUU [#26 K4 Theophylline B Exclusion] | 151 nM | 278 nM | 185 nM | 357 nM | 100 nM
UAACGGCCCAGUGAUGUUGGGUGGAGGCGGCGAGGACCGGUACGGCCGCCACUCGGCGCACAGGCGGAGUGAUGUUGCGCGUAAA [Same State Tryptophan A GF 13] | 242 nM | 164 nM | 319 nM | 182 nM | 215 nM
UAACUGAAGUGAUGUUUCAGUUCGUCGGAUACCAGUGCCGAUCAUCACCCUUGGCAGCCGUAAUAUUACUUAACAAUGACAGGUU [theeternabot_exclusion_KL_Theo_A_7] | 122 nM | 107 nM | 118 nM | 119 nM | 108 nM
UAAGUGAUUCACAAGCUAGAGUUACUCGAAGGAGCGACGAAUUCGUCAGGUAGGUCGCGAGUGAUGUUCGCAUGCUCUAGCAAAU [AK1 Exc Arginine A] | 655 nM | 681 nM | 704 nM | 689 nM | 650 nM
UACAAACGUAGUGAUGUUACGUACUCUGAUACCAGACAAGUGUAAGUCCCUUGGCAGCAGUCAUUUUGCUUAUUAUUUUCUCAAA [JR_ExcTheophyA_Sub019] | 70.1 nM | 88.1 nM | 74.1 nM | 86.4 nM | 68.1 nM
UACUAGUGAAACUAGUAGGUGCUAGGUGAAGGAGCGAUCGAAAGAUCAGGUAGGUCGCACCUUCCUGAGUGAUGUUCAGGUAAUA [KL-SSArg-A3] | 47.2 nM | 29.6 nM | 44.5 nM | 59.1 nM | 40.9 nM
UAGCAUUUGCUCGAGUGAUGUUCGAGCGAAGGAGCGCGAGAAAUCGCAGGUAGGUCGCGCUCGAACUAUGAGCGAUCAUUUAUUA [Arg A Ex t2c] | 284 nM | 217 nM | 244 nM | 463 nM | 370 nM
UAUAGAGUGACGGCCGCCACUAUUGUGAUUUAAUUGUUAGAGUGAUGUUUUGAUGUUUGAUUUUGUAGGACCGGGUUAUAUGUUA [wwwzmullin] | 1090 nM | 720 nM | 890 nM | 795 nM | 718 nM
UAUCAGAUUACUGAUACCAGUCUAAAGACAGUGAUGUUGUCUGAUCGACCACGAUCAAAGGACCCUUGGCAGCAGUAUACUAUUC [Theo B SS t5] | 163 nM | 157 nM | 157 nM | 164 nM | 158 nM
UAUCCUCGCUGAAGGAGCGAGCAUGAAGCAGUGAUGUUCCGAGCGAGUGAUGUUCGCAUAGCUCAGGUAGGUCGCAGUGGGAUUU [Same State Arginie B GF 17] | 795 nM | 749 nM | 1030 nM | 517 nM | 530 nM
UAUCUAUGCUCGGCCGCCACUAGGACCGGGAGGUAACUAGUGAUGUUAGUAUCUUCGGCCGCCACUAGGACCGGGAGUGUAGAUA [KL-SSTryp-B17 #DoubleAptamer] | 115 nM | 95.2 nM | 92.7 nM | 95.5 nM | 74.6 nM
UAUCUUUGCUGAAGGAGCGAGCAUGUUGGAGUGAUGUUCCGUGCGAGUGAUGUUCGCAUAGCUCAGGUAGGUCGCAGUGGGAGGA [KL-SSArg B29] | 120 nM | 94.7 nM | 105 nM | 157 nM | 86.2 nM
UAUUGAGUGAUGUUCGAUAACCAAUCAGAUACCAGUUUUGUAGAAAACCCUUGGCAGCUGCUCAGCUCUAUAAUGCUUCGCCCUU [theeternabot_sameState_KL_Theo_A_18] | 199 nM | 169 nM | 208 nM | 184 nM | 177 nM
UAUUGAUUGUCAGGAUAUCGUAAACGAGUGAUGUUCGUAUAUUGACGAUAGUCAAUUCUAUCUGAACGAGAAGGGACAUUAUUUA [JR_SSFMNB_Sub009] | 318 nM | 301 nM | 389 nM | 351 nM | 308 nM
UAUUUAAAUAAAAUAAAAUAAAUUGCUGAUACCAGAGUCAAUUGACUCCCUUGGCAGCGGAUCGAGUGAUGUUCGUAAAAUUUAU [AK2.1 SS Theophylline A] | 27.4 nM | 57.7 nM | 30.8 nM | 58.5 nM | 31.9 nM
UCACUACACUGAAGGAGCGUGAGGAGACUAGUGAUGUUGGUCAGAUUCUAUGAUCGUAACUCACAGGUAGGUCGCAGUGUAGUGU [Arg B SS t7] | 514 nM | 341 nM | 518 nM | 378 nM | 476 nM
UCAUGAGAGACGGCCGCCACUGAAGCAGCUCUGUAAGAGCUGCAACAGUAGAGUGAUGUUCUGCGCAGGACCGGGUCGUCAUGAA [KL-SSTryp-B9] | 513 nM | 206 nM | 398 nM | 352 nM | 450 nM

Sequence | apparent KD of K4 kissing-loop reporter (input ligand: FMN 200 uM) | apparent KD of K4 kissing-loop reporter (input ligand: arginine 13.2 mM) | apparent KD of K4 kissing-loop reporter (input ligand: none) | apparent KD of K4 kissing-loop reporter [1] | apparent KD of K4 kissing-loop reporter [2]
UCCUAGGUCUUCAGGCGAAAGCCCUGCGAAGGAGCGUGCGAAAGCACAGGUAGGUCGCGCAGUGAUGUUGCACCUAGGUAAUAAA [#SwitchBubble 21 #K4Late] | 843 nM | 111 nM | 268 nM | 115 nM | 140 nM
UCCUGCAAUCGACCACGAAAGUGGAUUGAUACCAGAGUCGAAAGACUCCCUUGGCAGCGAGUGAUGUUCGAAGCAGGUAAAUAAA | 626 nM | 455 nM | 539 nM | 457 nM | 426 nM
UCCUGUUGUCAGCCACGAAAGUGGAUUGAUACCAGAGUCGAAAGACUCCCUUGGCAGCGAGUGAUGUUCGCAGCAGGUAAAUAAA [MatMod 4 - Jieux - Exclusion - Theophylline A] | 211 nM | 157 nM | 209 nM | 207 nM | 178 nM
UCGAACGAUGGAAGGAGCGCUCGUCAGCCCUGCGAGUGAUGUUCGUGGGUAAAUAGUCGCGAGCAGGUAGGUCGCCAUCUUGAGC [Zainsotima] | 123 nM | 101 nM | 129 nM | 119 nM | 124 nM
UCGGACCCUGGAGGAUAUGAGUCGAGUGAUGUUCGGCGGUCCAUGCCGGUGCGGCGUUAUGCCCUUUUAGAAGGCCAGGGUCCGA [#2 Exclusion - FMN B Attempt #11 (HarryS)] | 277 nM | 159 nM | 196 nM | 207 nM | 212 nM
UCGGGAGGCCGAAGGAGCGCCGCCAGUGAUGUUGGGAGUUAGAUACCAGUGAUGUUGGGCCGGCAGGUAGGUCGCGGCCGCGGAU [Exclusion Arginine B Gf 18] | 201 nM | 106 nM | 147 nM | 168 nM | 153 nM
UCGUCCGGAUUACUCGUGGUCAUGGUCGAUACCAGUAGAUUAAUCUACCCUUGGCAGCGACAUGAGUGAUGUUCAUGUGCAAUGA [KL-XTheo-A6 #analogue] | 383 nM | 341 nM | 360 nM | 492 nM | 383 nM
UCUUUACCGGGAAGGAGCGUGAAUGAGAAUGGAUAUAGUGAUGUUAUGUAUACGAACGAAUCGCAGGUAGGUCGCCCGGAUCCCU [SSArgB.aB] | 1150 nM | 316 nM | 643 nM | 685 nM | 485 nM
UGACAUUGCUCAGAUACCAGACAUGAGCAUCAGCCAUGUGCCAAAUACGUACAAAUAAAUGUCCCUUGGCAGCUGAGCAAUGUCU [TheoBX 12] | 66.7 nM | 30.7 nM | 37.5 nM | 80 nM | 44.4 nM
UGACAUUGCUCAGAUACCAGACCUGAGGAUCACCCAGGUGCCAAAACGUACUAAAUAAAGGUCCCUUGGCAGCUGAGCAAUGUCU [TheoBX 13] | 63.6 nM | 38.9 nM | 27.3 nM | 101 nM | 65.4 nM
UGACAUUGCUCAGAUACCAGUCAUGAGGAUCACCCAUGGGCCAAAACGUACUAAAUAAAUGACCCUUGGCAGCUGAGCAAUGUCU [TheoBX 13] | 116 nM | 36.9 nM | 37.7 nM | 165 nM | 72 nM
UGACGUAAAACCGUCGAAUCGCUGUGAGAAGGAGCGGUAAAAUUGCCAGGUAGGUCGCUCACAGCCUCACAGUGAUGUUGUGGGA [Sovetequ] | 468 nM | 104 nM | 246 nM | 199 nM | 162 nM
UGACUACAAAGGAAAUAAUCCUAGUGAUGUUAGGAUAUGCUGAUAAGCAGAAGGAACUGAGAUCGAAAGAUCUCAAAUGUAGUCU [FmnAX 26 Mat Inspired #SwitchBubble #StaticStem #K4Early] | 131 nM | 90.1 nM | 84.9 nM | 96.6 nM | 88.2 nM
UGACUGGACUGAAGGAGCGAGCGAGACAAAGUCUCGAAAUCCUAGUGAUGUUAGGAAAUAACUCAGGUAGGUCGCAGUCUAGUCU [ArgBS 9 #SwitchBubble #StaticStem] | 181 nM | 152 nM | 175 nM | 170 nM | 173 nM
UGACUGGACUGAAGGAGCGCGCGAGACAAAGUCUCGAACUUCUAGUGAUGUUAGAAAAUAACGCAGGUAGGUCGCAGUCUAGUCU | 165 nM | 137 nM | 152 nM | 147 nM | 147 nM
UGACUGGACUGAAGGAGCGCUAAAACUCCUAGUGAUGUUGGGAAAUAAGAGACAAAGUCUCAGCAGGUAGGUCGCAGUCUAGUCU [ArgBS 24 #SwitchBubble #StaticStem] | 481 nM | 462 nM | 503 nM | 657 nM | 526 nM
UGACUGGACUGAAGGAGCGCUGAAGGAGCGUAAGUAGUGAUGUUGCUUACAGGUAGGUCGCAGCAGGUAGGUCGCAGUCUAGUCU | 45.3 nM | 37.1 nM | 56.6 nM | 44.3 nM | 43.7 nM
UGACUGGAUGGAAGGAGCGCUAAACUCCUAGUGAUGUUAGGGAUACGAGACAAAGUCUUGAGGCAGGUAGGUCGCCAUCUAGUCU [FiskerMod 11 - Jieux - Same State - Arginine B] | 162 nM | 130 nM | 147 nM | 157 nM | 138 nM
UGACUGGAUUGAAGGAGCGCUAAACUCCUAGUGAUGUUAGGGACACAAGACAAAGUCUUGAGGCAGGUAGGUCGCAAUCUAGUCU [FiskerMod 5 - Jieux - Same State - Arginine B] | 345 nM | 253 nM | 288 nM | 310 nM | 265 nM
UGACUUGCCUGAGGAUAUCUAGGAUAUCCAUAAAAGAAAAUAAUAAUCCAGUGAUGUUGGAGAAGGAGAGAAGGCAGGUAAGUCU [KL-XFMN-B17 #DoubleAptamer #SwitchBubble] | 176 nM | 114 nM | 119 nM | 112 nM | 119 nM
UGAGGAGAAUAUGAUACCAGCAGAGAGAGAGAGGAAGUAUAGUGAUGUUAUAUGAGAGAAUGCCCUUGGCAGCAUAAGAAGAAGG [SSTheophylB.B] | 148 nM | 121 nM | 142 nM | 129 nM | 125 nM

Reference: the supplement of paper PMC9170038
